In patent US20240342207, “MODIFIED NUCLEIC ACID COMPOSITIONS AND ASSOCIATED METHODS FOR TREATMENT OF PHENYLKETONURIA” (BOARD OF REGENTS, THE UNIVERSITY OF TEXAS SYSTEM, published 2024):
Changes are numbered by the printed parent chain.

Experiments:
Experiment in all cases: EMSA; one of 13 of 17 binding mutants; affinity not decreased
Conditions in all cases: tags: His-tag, E. coli; stem-loop
[1] = target: T1, PAH F299C (Homo sapiens, UniProt P00439 P00439:1-452, F299C)
T1 sequence: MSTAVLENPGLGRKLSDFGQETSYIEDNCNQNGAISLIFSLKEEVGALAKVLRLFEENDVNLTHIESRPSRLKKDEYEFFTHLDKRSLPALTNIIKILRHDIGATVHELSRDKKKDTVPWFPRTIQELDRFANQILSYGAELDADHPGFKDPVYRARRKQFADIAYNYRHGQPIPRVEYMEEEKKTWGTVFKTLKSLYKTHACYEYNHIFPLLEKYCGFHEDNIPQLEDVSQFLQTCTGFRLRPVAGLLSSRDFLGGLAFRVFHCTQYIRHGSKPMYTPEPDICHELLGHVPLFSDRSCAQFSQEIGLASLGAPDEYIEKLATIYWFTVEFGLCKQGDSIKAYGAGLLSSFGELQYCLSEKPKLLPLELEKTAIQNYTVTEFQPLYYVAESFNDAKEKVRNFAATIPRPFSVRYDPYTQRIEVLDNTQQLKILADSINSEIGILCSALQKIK

[2] = target: T2, PAH P275L (Homo sapiens, UniProt P00439 P00439:1-452, P275L)
T2 sequence: T1 sequence with P275L, C299F

[3] = target: T3, PAH I65S (Homo sapiens, UniProt P00439 P00439:1-452, I65S)
T3 sequence: T1 sequence with I65S, C299F

[4] = target: T4, PAH R408W (Homo sapiens, UniProt P00439 P00439:1-452, R408W)
T4 sequence: T1 sequence with C299F, R408W

Measured: binding result

B1: HULC 181-201 mimic (ssRNA)
RNA: CAAAAUGCAUAUGUAUCUUUG
binds: all assays above
